Measurements: patent US12390517B2, “Compositions, methods and uses for eliciting an immune response” (Griffith University, priority 2018, dated 2025)

T1: recombinant MsrA/B (methionine sulfoxide reductase) from N. gonorrhoeae 1291, amino acids 30-522 of SEQ ID NO: 1 (recombinant with 6-His tag SEQ ID NO: 15); tag (Neisseria gonorrhoeae, UniProt P14930, E520K)
T1 construct: 6-His tag (N); thrombin cleavage site (N); made in house; host or cells: E. coli BL21 Star (DE3)pLysS
T1 sequence (P14930 with tags, fused parts or gaps E520K): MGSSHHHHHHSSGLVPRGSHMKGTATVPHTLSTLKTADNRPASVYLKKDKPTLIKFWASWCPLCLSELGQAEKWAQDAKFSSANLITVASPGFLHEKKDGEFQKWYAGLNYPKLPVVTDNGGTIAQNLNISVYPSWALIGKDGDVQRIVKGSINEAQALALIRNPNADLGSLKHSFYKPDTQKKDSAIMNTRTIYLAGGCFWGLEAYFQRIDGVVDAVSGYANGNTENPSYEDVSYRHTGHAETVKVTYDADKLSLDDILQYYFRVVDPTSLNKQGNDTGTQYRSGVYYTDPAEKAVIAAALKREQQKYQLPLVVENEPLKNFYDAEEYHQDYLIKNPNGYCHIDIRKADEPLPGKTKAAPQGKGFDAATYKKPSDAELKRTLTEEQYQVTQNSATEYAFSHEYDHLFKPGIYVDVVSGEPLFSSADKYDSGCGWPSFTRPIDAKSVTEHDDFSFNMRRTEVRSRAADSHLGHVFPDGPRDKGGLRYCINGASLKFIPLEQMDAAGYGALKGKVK


Tests used:
[1] = biological target: T1, recombinant MsrA/B (methionine sulfoxide reductase) from N. gonorrhoeae 1291, amino acids 30-522 of SEQ ID NO: 1 (recombinant with 6-His tag SEQ ID NO: 15); tag; assay: Surface plasmon resonance (SPR) affinity assay of Met(O) binding to immobilized MsrA/B; design: species or system Neisseria gonorrhoeae 1291; conditions: read-out: KD (equilibrium dissociation constant), Biacore T200, MsrA/B immobilized on CM5 chip, Met(O) 0.16 to 100 nM, single cycle kinetics, absence of serum/antibody
Description: The msr gene was amplified from N. gonorrhoeae 1291 using primers msrexp_NdeIF (5′-[…]-3′; SEQ ID NO:20) and msrexp_XhoIR (5′-[…]-3′; SEQ ID NO:21) and the resulting PCR product was cloned into pET15b to obtain a Msr expression construct pET15bmsr. The construct pET15bmsr was transformed into E. coli BL21 Star (DE3)pLysS host strain (Novagen) and MsrA/B was overexpressed and purified. Briefly, expression was induced by 0.1 mM IPTG at an optical density at 600 nm (OD600) of 0.4 for 24 hr at room temperature. Cell cultures were harvested and the cell pellet was re-suspended in buffer A. Cells were lysed by sonication, centrifuged and the supernatant was applied to a column packed with TALON™ metal affinity resins (Clontech laboratories, Inc). […] Fractions were collected and analyzed by 4-12% NuPAGE® Novex Bis-Tris Gels (Invitrogen) stained with Coomassie Blue, and by Western blot of anti-His polyclonal antisera. […]
SPR assays were performed using a Biacore T200 for affinity analysis and a Pall Pioneer FE for competition assays. […] Data was analyzed using the Biacore T200 evaluation software package. […] Data was collected using the Pioneer Software package and analyzed using Qdat analysis software. The percentage blocking was calculated based on the relative RMax of the Met(O) injection with and without serum, and the serum with and without Met(O). […]

[2] = system: whole cell N. gonorrhoeae 1291; assay: Whole cell ELISA of mouse antisera against N. gonorrhoeae 1291 strains; type: binding; conditions: antisera of 5 mice immunized with Freund's adjuvant; for Whole cell ELISA titre to the mutant strain: 1291 msr::kan mutant; for Whole cell ELISA average titre to 1291 Δmsr_C: complemented strain; for Whole cell ELISA average titre to 1291: wild-type 1291
Description: Groups of 10 female BALB/c mice (6 weeks old) were immunized subcutaneously with 5 μg of recombinant MsrA/B with either Alhydrogel® (aluminium hydroxide, InvivoGen) or Freund's (FCA/FIA, Sigma-Aldrich) adjuvant on days 0, 21, and 28. Terminal bleeds were collected on day 42. For Freund's adjuvant, Freund's complete adjuvant (FCA) was used on day 0 and Freund's incomplete adjuvant (FIA) was used in the boosts of day 21 and 28. Pre-bleed of each mouse was collected 4 days before immunization. This study was carried out in accordance with the recommendations of the Australian Code for the Care and Use of Animals for Scientific Purposes, the Griffith University Animal Ethics Committee (AEC). The protocol was approved by the Griffith University AEC.
For whole cell ELISA, bacteria were grown on BHI or GC plates for 16 hr. Cells were harvested and resuspended in PBS at an OD600 of 0.2. Microtitre plate wells were filled with 50 μl of the bacterial suspension and dried at room temperature overnight in the laminar flow cabinet. The bacteria in the dried wells were then heat-killed for 1 hr in 56° C. For recombinant protein ELISA, wells of plates were coated with 100 ng of purified recombinant MsrA/B protein in 100 μl of coating buffer (0.5M carbonate/bicarbonate buffer, pH 9.6) for 1 hr at room temperature. All ELISAs were performed with mouse pre-immune or MsrA/B immunized sera, and secondary antibody as specified in the results (polyclonal anti-mouse Ig HRP (Dako) or IgG1, IgG2a, IgG2b, IgG3 or IgM HRP (Thermofisher Scientific)). The substrate TMB (3,3′, 5,5;-tetramethylbenzidine) solution (Thermofisher Scientific) was used as per manufacture's instruction. Equal amount of 1 N hydrochloric acid was added to stop the reaction. Absorbance was read in a TECAN Model Infinite 200 Pro plate reader at 450 nm.

Molecule	Kd [1]	Whole cell ELISA titre to the mutant strain [2]	Whole cell ELISA average titre to 1291 Δmsr_C [2]	Whole cell ELISA average titre to 1291 [2]
C[S+]([O-])CC[C@H](N)C(=O)O (stereo partly shown) [Met(O), methionine sulfoxide]	15.4 ± 3.7 nM	–	–	–
MsrB: recombinant MsrB domain, his-tag removed (SEQ ID NO:31), given to mice with Freund's adjuvant (protein, Recombinant MsrB) GSHMKAATYKKPSDAELKRTLTEEQYQVTQNSATEYAFSHEYDHLFKPGIYVDVVSGEPLFSSADKYDSGCGWPSFTRPIDAKSVTEHDDFSFNMRRTEVRSRAADSHLGHVFPDGPRDKGGLRYCINGASLKFIPLEQMDAAGYGALKGKVK	–	1,000	40,000	16,000
MsrA: recombinant MsrA domain, his-tag removed (SEQ ID NO:28), given to mice with Freund's adjuvant (protein, Recombinant MsrA) GSHMKHSFYKPDTQKKDSAIMNTRTIYLAGGCFWGLEAYFQRIDGVVDAVSGYANGNTENPSYEDVSYRHTGHAETVKVTYDADKLSLDDILQYYFRVVDPTSLNKQGNDTGTQYRSGVYYTDPAEKAVIAAALKREQQKYQLPLVVENEPLKNFYDAEEYHQDYLIKNPNGYCHIDIRKADEPLPG	–	1,000	20,000	10,000
